Where a SMILES comes first, the peptide text is derived from it. [ ]: non-standard residue; d: D form.
How the values were obtained:
Test in all cases: ELISA-based competitive binding assay with purified PKC isoform
PKC-α = PKC-α (Homo sapiens, UniProt P17252); parameters: key to Affinity for PKC isoform α: —: no detectable affinity; Low to very low affinity at 10X or 20X or both PRE concentrations in at least one cell line in the cell extract assay; Low affinity in purified isoform assay.; Moderate affinity at 10X or 20X or both PRE concentrations in at least one cell line in the cell extract assay.; High affinity at 10X or 20X or both PRE concentrations in at least one cell line in the cell extract assay; High affinity in purified isoform assay; settings: for Affinity for PKC isoform α: Purified isoform
Method: (§1) Peptides PRE 1, 2, 3, 4, 5, 6, 7, 8, 9, 10, 11, 12 and 13 (see Table 3) were tested for their ability to interfere with binding of PKC isoform-specific antibodies to their target PKC isoforms using a competitive binding assay and purified PKC isoforms.
(§2) Procedure: Competitive binding was assessed using a 96 well plate ELISA-based assay as described below.
(§3) Greiner 96 well ELISA plates were coated with the appropriate PKC isoform diluted in PBSN (PBS with Calcium/Magnesium+0.05% Sodium azide w/w). 50 μL/well at 250 ng/mL was used. Control wells contained PBSN only. Plates were incubated overnight at 4° C.
(§4) The plates were washed 3 times with 200 μL of dH2O per well, then 100 μL of blocking solution was added per well and the plate incubated for 1 h at 37° C. The washing steps with dH2O were repeated and 50 μL of the appropriate PRE solution (PRE stock solution [20 mM in DMSO] diluted in PBSN) was added and the plate incubated for 1 h at room temperature.
(§5) After incubation, 5 μL of 1.1:400 anti-PKC (isoform specific antibody) was added per well (to provide a final concentration of 1:4000). For PKC-epsilon, 1.1:800 dilution was used and for PKC-zeta a 1.1:100 dilution was used due to high and low binding affinity, respectively. The plates were then incubated 1 h at room temperature, followed by washing with dH2O as described above.
(§6) 50 μL of 1:1000 dilution of Alkaline Phosphatase (AP) conjugated antibody (anti-rabbit for all except zeta, which was anti-goat) was then added and the plate incubated for 1 h at room temperature. Washing with dH2O was then repeated. Finally, 100 μL of pNPP solution in pNPP buffer (2 mM MgCl2, 100 mM Sodium bicarbonate in water, pH 9.8) was added to all wells and incubated for 8 minutes for α, βI, βII ε, and ζ, or for 15-20 mins for δ (until sufficient coloration is observed). The reaction was stopped by addition of Stop solution (2N NaOH) and the absorbance at 405 nm was read on a Galaxy Plate reader.
(§7) Controls were PKC without PRE; blank controls, and controls containing the final concentrations of DMSO used for solubilizing the PREs. The non-specific binding capacity related to DMSO was also measured.
(§8) The antibodies used were as follows: anti-PKC α (Cat. No. SC-208); anti-PKC βI (Cat. No. SC-209); anti-PKC βII (Cat. No. SC-210); anti-PKC δ (Cat. No. SC-213); anti-PKC ε (Cat. No. SC-214); anti-PKC ζ (Cat. No. SC-216-G) (all from Santa Cruz Biotechnology, Inc.). The AP-conjugated antibodies were obtained from Jackson Immuno Research Laboratories (West Grove, Pa.).
(§9) Calculations: The OD values measured at 405 nm represent the free PKC coated per well.
(§10) OD405 PKC alone−Blank OD405 of each sample=OD405 coated isoform
(§11) (OD405 of sample X/OD405 coated isoform)×100=% n that represents the percentage of X binding compared to control.
(§12) 100-% n measures the relative binding capacity of X towards the tested isoform.
(§13) The apparent binding capacity of the DMSO samples was then subtracted from X binding capacity.
(§14) All measurements were made in triplicate and the values in the table represent the averaged calculated binding capacity values after subtraction of the DMSO apparent binding capacity (averaged from 12 values, respectively 10.80, 11.20 and 16.40 corresponding to the concentrations of DMSO used to dilute the […] at 200, 100 and 50 μM respectively). The results allow for quantitative comparison of the binding capacity of each PRE towards an individual isoform within each table, but not among isoforms due to differences in sensitivity of the specific antibodies toward the secondary antibody. This applies particularly to PKC-delta. As noted above, the colour development duration was increased 2-3 times and, as a result, the OD405 measurements may be overestimated for this isoform.

PKC-βI = PKC-βI (Homo sapiens, UniProt P05771); parameters: key to Affinity for PKC isoform βI: —: no detectable affinity; Low to very low affinity at 10X or 20X or both PRE concentrations in at least one cell line in the cell extract assay; Low affinity in purified isoform assay.; Moderate affinity at 10X or 20X or both PRE concentrations in at least one cell line in the cell extract assay.; High affinity at 10X or 20X or both PRE concentrations in at least one cell line in the cell extract assay; High affinity in purified isoform assay; settings: for Affinity for PKC isoform βI: Purified isoform
Chain of PKC-βI (P05771 whole entry, canonical isoform): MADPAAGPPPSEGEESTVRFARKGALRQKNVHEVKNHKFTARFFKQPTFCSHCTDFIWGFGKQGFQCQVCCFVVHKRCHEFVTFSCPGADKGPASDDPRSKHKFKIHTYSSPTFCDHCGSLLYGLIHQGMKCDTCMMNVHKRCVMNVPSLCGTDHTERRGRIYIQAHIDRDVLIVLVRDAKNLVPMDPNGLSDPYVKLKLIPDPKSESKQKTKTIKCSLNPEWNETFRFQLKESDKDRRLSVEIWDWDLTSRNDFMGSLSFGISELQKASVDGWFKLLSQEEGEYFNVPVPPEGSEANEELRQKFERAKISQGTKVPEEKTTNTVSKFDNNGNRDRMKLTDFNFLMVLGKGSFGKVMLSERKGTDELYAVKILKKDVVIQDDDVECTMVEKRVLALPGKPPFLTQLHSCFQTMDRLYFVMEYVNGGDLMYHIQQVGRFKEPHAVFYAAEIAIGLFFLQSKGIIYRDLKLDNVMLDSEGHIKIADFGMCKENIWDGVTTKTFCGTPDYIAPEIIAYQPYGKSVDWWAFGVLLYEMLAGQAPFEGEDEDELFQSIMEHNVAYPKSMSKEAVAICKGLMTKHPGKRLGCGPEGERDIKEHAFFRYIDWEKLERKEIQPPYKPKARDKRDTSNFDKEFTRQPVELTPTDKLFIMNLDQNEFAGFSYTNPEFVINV
Method: as §1, §2, §3, §4, §5, §6, §7, §8, §9, §10, §11, §12, §13, §14

PKC-βII = PKC-βII (Homo sapiens, UniProt P05771); parameters: key to Affinity for PKC isoform βII: —: no detectable affinity; Low to very low affinity at 10X or 20X or both PRE concentrations in at least one cell line in the cell extract assay; Low affinity in purified isoform assay.; Moderate affinity at 10X or 20X or both PRE concentrations in at least one cell line in the cell extract assay.; High affinity at 10X or 20X or both PRE concentrations in at least one cell line in the cell extract assay; High affinity in purified isoform assay; settings: for Affinity for PKC isoform βII: Purified isoform
Chain of PKC-βII (P05771 1-673 isoform P05771-2): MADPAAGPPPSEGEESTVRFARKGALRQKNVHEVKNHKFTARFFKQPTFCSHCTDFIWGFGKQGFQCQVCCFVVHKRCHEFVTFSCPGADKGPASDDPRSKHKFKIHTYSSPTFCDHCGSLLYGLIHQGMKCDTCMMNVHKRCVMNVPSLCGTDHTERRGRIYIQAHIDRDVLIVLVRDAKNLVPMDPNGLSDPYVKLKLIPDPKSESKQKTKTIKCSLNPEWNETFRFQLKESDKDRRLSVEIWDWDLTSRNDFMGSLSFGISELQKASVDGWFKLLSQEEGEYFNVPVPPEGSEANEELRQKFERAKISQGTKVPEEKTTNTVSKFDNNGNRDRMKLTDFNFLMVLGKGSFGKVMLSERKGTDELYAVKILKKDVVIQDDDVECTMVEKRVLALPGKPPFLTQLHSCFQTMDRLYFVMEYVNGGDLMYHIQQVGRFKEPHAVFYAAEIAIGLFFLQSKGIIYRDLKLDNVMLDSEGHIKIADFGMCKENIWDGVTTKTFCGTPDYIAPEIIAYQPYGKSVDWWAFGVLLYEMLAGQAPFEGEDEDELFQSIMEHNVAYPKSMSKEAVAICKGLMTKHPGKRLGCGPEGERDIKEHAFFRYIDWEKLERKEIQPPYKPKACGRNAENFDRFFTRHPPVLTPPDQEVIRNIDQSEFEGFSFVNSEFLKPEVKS
Method: as §1, §2, §3, §4, §5, §6, §7, §8, §9, §10, §11, §12, §13, §14

[1] = PRE 50 μM, purified PKC-βII, read-out: calculated binding capacity (100-% n, DMSO apparent binding subtracted)
[2] = PRE 100 μM, purified PKC-βII, read-out: calculated binding capacity (100-% n, DMSO apparent binding subtracted)

Affinity for PKC isoform α (PKC-α)	Affinity for PKC isoform βI (PKC-βI)	Affinity for PKC isoform βII (PKC-βII)	Compound	other results
—	—	L	Ac-ISIGILNQADK-NH2 [PRE 10]	
L	—	—	Ac-ISIGILQNADK-NH2 (not fully specified; printed as Ac-ISIGILQNADK-NH2) [PRE 7]	calculated binding capacity (100-% n, DMSO apparent binding subtracted) (PKC-βI; PRE 50 μM, purified PKC-βI): 2.10%
—	—	—	Ac-KDAQNLI-NH2 [PRE 12]	
—	—	—	Ac-RDAQNLI-NH2 [PRE 13]	
L	—	—	Ac-RDAQNLIGISI-NH2 [PRE 11]	
—	L	H	Ac-isigilqnadk-NH2 (Ac-[dI][dS][dI]G[dI][dL][dQ][dN][dA][dD][dK]-NH2; SMILES CC[C@@H](C)[C@@H](NC(C)=O)C(=O)N[C@H](CO)C(=O)N[C@@H](C(=O)NCC(=O)N[C@@H](C(=O)N[C@H](CC(C)C)C(=O)N[C@H](CCC(N)=O)C(=O)N[C@H](CC(N)=O)C(=O)N[C@H](C)C(=O)N[C@H](CC(=O)O)C(=O)N[C@H](CCCCN)C(N)=O)[C@H](C)CC)[C@H](C)CC) [PRE 9]	calculated binding capacity (100-% n, DMSO apparent binding subtracted) (PKC-α; PRE 100 μM, purified PKC-α): 5.35%; calculated binding capacity (100-% n, DMSO apparent binding subtracted) (PKC-βI; PRE 50 μM, purified PKC-βI): 11.53%; calculated binding capacity (100-% n, DMSO apparent binding subtracted) (PKC-βI; PRE 100 μM, purified PKC-βI): 8.82%; calculated binding capacity (100-% n, DMSO apparent binding subtracted) (PKC-βI; PRE 200 μM, purified PKC-βI): 5.72%; calculated binding capacity (100-% n, DMSO apparent binding subtracted) (PKC-βII; PRE 50 μM, purified PKC-βII): 8.14%; calculated binding capacity (100-% n, DMSO apparent binding subtracted) (PKC-βII; PRE 100 μM, purified PKC-βII): 0.3%
—	—	—	ILEDKGGDAQNLIGISI [PRE 8]	

Further lines, the compound ahead of its results:

Compound	Affinity for PKC isoform α (PKC-α)	Affinity for PKC isoform βI (PKC-βI)	Affinity for PKC isoform βII (PKC-βII)	other results
CC[C@H](C)[C@H](NC(=O)[C@H](CO)NC(=O)[C@@H](NC(=O)CNC(=O)[C@@H](NC(=O)[C@H](CC(C)C)NC(=O)[C@H](CC(N)=O)NC(=O)[C@H](CCC(N)=O)NC(=O)[C@H](C)NC(=O)[C@H](CC(=O)O)NC(=O)CNC(=O)CNC(=O)[C@H](CCCCN)NC(=O)[C@@H](NC(=O)[C@H](CCC(=O)O)NC(=O)[C@H](CCC(N)=O)NC(=O)[C@@H](NC(=O)CNC(=O)[C@H](CCCCN)NC(=O)[C@H](C)NC(C)=O)[C@@H](C)CC)C(C)C)[C@@H](C)CC)[C@@H](C)CC)C(N)=O [PRE 3] (Ac-AKGIQEVKGGDAQNLIGISI-NH2)	H	H	—	inhibition at 50 µM (PKC-βII; [1]): 0%; inhibition at 100 µM (PKC-βII; [2]): 0%
CC[C@H](C)[C@H](NC(=O)[C@H](CO)NC(=O)[C@@H](NC(=O)CNC(=O)[C@@H](NC(=O)[C@H](CC(C)C)NC(=O)[C@H](CC(N)=O)NC(=O)[C@H](CCC(N)=O)NC(=O)[C@H](C)NC(=O)[C@H](CC(=O)O)NC(=O)[C@H](CCCCN)NC(C)=O)[C@@H](C)CC)[C@@H](C)CC)C(N)=O [PRE 4, Ac-KDAQNLIGISI-NH2] (Ac-KDAQNLIGISI-NH2)	H	L	L	
CC[C@H](C)[C@H](NC(=O)[C@H](CO)NC(=O)[C@@H](NC(=O)CNC(=O)[C@@H](NC(=O)[C@H](CC(C)C)NC(=O)[C@H](CC(N)=O)NC(=O)[C@H](CCC(N)=O)NC(=O)[C@H](C)NC(=O)[C@H](CC(=O)O)NC(=O)[C@H](CCCCN)NC(=O)CNC(=O)CNC(=O)[C@H](CCCCN)NC(=O)[C@@H](NC(=O)[C@H](CCC(=O)O)NC(=O)[C@H](CCC(N)=O)NC(=O)[C@@H](NC(=O)CNC(=O)[C@H](CCCCN)NC(=O)[C@H](C)NC(C)=O)[C@@H](C)CC)C(C)C)[C@@H](C)CC)[C@@H](C)CC)C(N)=O [PRE 5] (Ac-AKGIQEVKGGKDAQNLIGISI-NH2)	—	—	—	inhibition at 50 µM (PKC-α; PRE 50 μM, purified PKC-α, read-out: calculated binding capacity (100-% n, DMSO apparent binding subtracted)): 0%; inhibition at 100 µM (PKC-α; PRE 100 μM, purified PKC-α, read-out: calculated binding capacity (100-% n, DMSO apparent binding subtracted)): 0%; inhibition at 200 µM (PKC-α; PRE 200 μM, purified PKC-α, read-out: calculated binding capacity (100-% n, DMSO apparent binding subtracted)): 0%; inhibition at 50 µM (PKC-βI; PRE 50 μM, purified PKC-βI, read-out: calculated binding capacity (100-% n, DMSO apparent binding subtracted)): 0%; inhibition at 100 µM (PKC-βI; PRE 100 μM, purified PKC-βI, read-out: calculated binding capacity (100-% n, DMSO apparent binding subtracted)): 0%; inhibition at 200 µM (PKC-βI; PRE 200 μM, purified PKC-βI, read-out: calculated binding capacity (100-% n, DMSO apparent binding subtracted)): 0%; inhibition at 50 µM (PKC-βII; [1]): 0%; inhibition at 100 µM (PKC-βII; [2]): 0%; inhibition at 200 µM (PKC-βII; PRE 200 μM, purified PKC-βII, read-out: calculated binding capacity (100-% n, DMSO apparent binding subtracted)): 0%
Ac-KDANQLIGISI-NH2 [PRE 6]	—	L	—	
RRKKGGKDFVVKR [PRE 1]	—	H	—	
